Laboratory results from patent US8114968 (dated 2012).
Numbering of substitutions follows the chain as printed. Read-outs that look alike come from different tables or passages of the source.

How the values were obtained:
murine MMP-12 [1] = biological target: T1, murine MMP-12 (UniProt P34960 110-473); assay: enzyme inhibition
M121-E07 [2] = assay: -; column head prints nM
Target sequence in this assay (P34960 110-473): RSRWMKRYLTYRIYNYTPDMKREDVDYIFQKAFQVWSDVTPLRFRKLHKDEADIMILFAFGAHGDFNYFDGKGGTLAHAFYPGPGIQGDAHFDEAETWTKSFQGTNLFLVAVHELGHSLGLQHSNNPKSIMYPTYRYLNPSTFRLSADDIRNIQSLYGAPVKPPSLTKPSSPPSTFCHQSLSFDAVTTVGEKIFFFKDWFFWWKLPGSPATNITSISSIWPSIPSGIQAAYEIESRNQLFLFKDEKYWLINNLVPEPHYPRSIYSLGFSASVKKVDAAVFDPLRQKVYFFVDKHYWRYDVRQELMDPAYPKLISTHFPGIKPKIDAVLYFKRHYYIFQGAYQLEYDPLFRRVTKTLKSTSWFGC

M118-F11 [3] = assay: -; column head prints nM
Target sequence in this assay (P34960 110-473): as above

M107-A12 [4] = biological target: M107-A12
Target sequence in this assay (P34960 110-473): as above

M109-G11 [5] = biological target: M109-G11
Target sequence in this assay (P34960 110-473): as above

M121-E07 [6] = biological target: M121-E07
M107-A12 [7] = biological target: M107-A12; remark: listed apart in the source
M118-F11 [8] = biological target: M118-F11
M109-G11 [9] = biological target: M109-G11; remark: listed apart in the source
human MMP-12 [10] = biological target: T2, human MMP-12 (UniProt P39900 106-470)
murine MMP-12 [11] = biological target: T1, murine MMP-12; assay: enzyme inhibition; recombinant; peptide substrate
murine MMP-12 [12] = biological target: T1, murine MMP-12
human MMP-12 [13] = biological target: T2, human MMP-12; assay: enzyme inhibition
murine MMP-12 [14] = biological target: T1, murine MMP-12; assay: -; column head prints nM

T1 sequence (P34960 110-473): as above
M088-H10, sequence (P34960 110-473): as above

B1: 539B-M0011-H11 Fab (Fab, V domains shown)
VH: EVQLLESGGGLVQPGGSLRLSCAASGFTFSWYNMWWVRQAPGKGLEWVSYIYPSGGNTGYADSVKGRFTISRDNSKNTLYLQMNSLRAEDTAVYYCAVFEYSSSGPQGYWGQGTLVTVSS
VL: QSALTQPPSVSVAPGQTARITCGGNNIGTKSVHWYQQKSGQAPVLVVYDNSDRPSGIPERFSGSNSGNTATLTISRVEAGDEADYYCQVWDNSIDHVVFGGGTKLTVL
- IC50 (murine MMP-12 [1]): 9 nM

B2: 539B-M11H11 IgG (antibody, V domains shown)
VH: B1 VH
VL: B1 VL
- IC50 (murine MMP-12 [1]): 3 nM

B3: Mouse MMP12 (enzyme)
chain: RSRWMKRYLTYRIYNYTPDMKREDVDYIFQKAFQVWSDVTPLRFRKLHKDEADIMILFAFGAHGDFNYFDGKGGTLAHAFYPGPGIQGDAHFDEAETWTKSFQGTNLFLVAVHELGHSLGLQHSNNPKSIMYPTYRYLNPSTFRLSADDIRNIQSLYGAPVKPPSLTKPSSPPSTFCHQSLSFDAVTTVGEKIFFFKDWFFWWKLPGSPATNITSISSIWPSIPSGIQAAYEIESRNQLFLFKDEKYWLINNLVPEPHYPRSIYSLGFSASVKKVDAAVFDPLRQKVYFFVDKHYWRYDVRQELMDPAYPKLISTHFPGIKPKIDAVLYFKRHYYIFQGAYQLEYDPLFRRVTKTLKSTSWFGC
- Kd (M121-E07 [2]): 0.181 nM
- Kd (M118-F11 [3]): 0.727 nM
- Kd (M107-A12 [4]): 0.9 nM
- Kd (M088-H10): 34.4 nM
- Kd (M109-G11 [5]): 1 nM

B4: Human MMP12 (enzyme)
chain: GPVWRKHYITYRINNYTPDMNREDVDYAIRKAFQVWSNVTPLKFSKINTGMADILVVFARGAHGDFHAFDGKGGILAHAFGPGSGIGGDAHFDEDEFWTTHSGGTNLFLTAVHEIGHSLGLGHSSDPKAVMFPTYKYVDINTFRLSADDIRGIQSLYGDPKENQRLPNPDNSEPALCDPNLSFDAVTTVGNKIFFFKDRFFWLKVSERPKTSVNLISSLWPTLPSGIEAAYEIEARNQVFLFKDDKYWLISNLRPEPNYPKSIHSFGFPNFVKKIDAAVFNPRFYRTYFFVDNQYWRYDERRQMMDPGYPKLITKNFQGIGPKIDAVFYSKNKYYYFFQGSNQFEYDFLLQRITKTLKSNSWFGC
- Kd (M121-E07 [6]): 0.197 nM
- Kd (M107-A12 [7]): 1.8 nM
- Kd (M118-F11 [8]): 1.17 nM
- Kd (M109-G11 [9]): 7.5 nM

B5: 539B-M0008-H09 (format not stated) (antibody, V domains shown)
VH: EVQLLESGGGLVQPGGSLRLSCAASGFTFSDYNMHWVRQAPGKGLEWVSYIGPSGGYTHYADSVKGRFTISRDNSKNTLYLQMNSLRAEDTAVYYCAKDIRGAYSSGLFDYWGRGTLVTVSS
VL: DIQMTQSPSSLSASVGDRVTITCRANQSIYTYLNWYQQKPGKAPELLIYAASSLQSGVPSRFSGSGSGTDFTLTISSLQPEDFATYYCQQAGIFGQGTKLEIK
- Kd (human MMP-12 [10]): 18 nM
- IC50 (murine MMP-12 [11]): 3.7 nM

B6: 539B-M0071-D09 (Fab, V domains shown)
VH: B5 VH with D31P, N33W, Y50G, G52S, P53S, Y57D, H59L
VL: B5 VL
- Kd (human MMP-12 [10]): 4.2 nM
- Kd (murine MMP-12 [12]): 1.3 nM

B7: 539B-M0071-H03 (Fab, V domains shown)
VH: B5 VH with D31P, N33W, Y50G, Y57P, H59F, V64I
VL: B5 VL
- Kd (human MMP-12 [10]): 1 nM

B8: 539B-M0065-E12 (Fab, V domains shown)
VH: B5 VH with D31W, Y50G, G52S, Y57N, H59M
VL: B5 VL
- Kd (human MMP-12 [10]): 1.1 nM
- Kd (murine MMP-12 [12]): 1.7 nM

B9: 539B-M131A06 (antibody, V domains shown)
VH: B5 VH with D31W, N33W, Y50G, G52S, Y57M, H59M, K98R, R101V, A103P, S106A
VL: B5 VL
- IC50 (human MMP-12 [13]): 0.321 nM
- Kd (human MMP-12 [10]): 0.18 nM
- Kd (murine MMP-12 [14]): 0.0727 nM

B10: 539B-M0069-D10 (Fab, V domains shown)
VH: B5 VH with D31L, N33H, Y50G, Y57W, H59I
VL: B5 VL
- Kd (human MMP-12 [10]): 5.7 nM
- Kd (murine MMP-12 [12]): 3.4 nM

B11: 539B-M131A06-GA-S (antibody, V domains shown)
VH: B5 VH with D31W, N33W, Y50G, G52S, Y57M, H59M, K98R, R101V, A103P, S106A
VL: DIQMTQSPSSLSASVGDRVTITCRASQSIYTYLNWYQQKPGKAPKLLIYAASSLQSGVPSRFSGSGSGTDFTLTISSLQPEDFATYYCQQAGIFGQGTKLEIKR
- IC50 (human MMP-12 [13]): 0.233 nM
